{"source": "patent US12048734B2", "about": "“Bioactive peptides and methods of use thereof” (OP-T LLC, priority 2020, dated 2024)", "test_system": "CD4loCD40+ T cells (Th40 cells)", "assay": "Cytokine production of CD40- or CD3-stimulated Th40 cells with galectin-9", "format": "cell-based, NOD mice", "details": "3 days; indicated concentrations of galectin-9", "experimental": "CD4loCD40+ T cells (Th40 cells) were sorted from 7-20 weeks old female NOD spleens. Cells were either isotype treated, CD40- or CD3-stimulated in the absence/presence of indicated concentrations of galectin-9 (gal-9; mg/ml) for 3 days then cytokines were measured. Bar graphs depict means with SEM. Asterisks denote significant differences determined by one-way Anova; *-P between 0.01 and 0.05; **-P, 0.01; ***-P, 0.001. Measurements were done on four individual mice of different ages.", "data": [{"molecule": "galectin-9: galectin-9 protein added to Th40 cell cultures (protein, UniProt O00182 1-355, looked up) Galectin-9: MAFSGSQAPYLSPAVPFSGTIQGGLQDGLQITVNGTVLSSSGTRFAVNFQTGFSGNDIAFHFNPRFEDGGYVVCNTRQNGSWGPEERKTHMPFQKGMPFDLCFLVQSSDFKVMVNGILFVQYFHRVPFHRVDTISVNGSVQLSYISFQNPRTVPVQPAFSTVPFSQPVCFPPRPRGRRQKPPGVWPANPAPITQTVIHTVQSAPGQMFSTPAIPPMMYPHPAYPMPFITTILGGLYPSKSILLSGTVLPSAQRFHINLCSGNHIAFHLNPRFDENAVVRNTQIDNSWGSEERSLPRKMPFVRGQSFSVWILCEAHCLKVAVDGQHLFEYYHRLRNLPTINRLEVGGDIQLTHVQT", "values": [{"measurement": "CD40 and CD3 induced cytokine production level", "result": "alters the production level"}]}]}
